Our source for the stoichiometry N values is PMC7029000.

The stoichiometry N is a count of units in the complex or per binding partner.

Several values for one entry are separate records, joined by “and”; a condition that tells them apart may be missing. Equal values may be shown once.

The target of assay [1] is Purified recombinant PKM2 (UniProt P52480). The experiment in a line: native gel or EMSA; blue native PAGE of purified recombinant PKM2 mixed with natural products (vindoline, pyridoxine and others); tetramer to dimers.
The target of assay [2] is PKM2 (mouse (endogenous in primary astrocytes and striatum)) (UniProt P52480). As to the kind of experiment: native gel or EMSA; blue native PAGE of striatum of Drd2 flox/flox and Drd2 hGFAPcKO mice after 5 mg/kg quinpirole or pyridoxine for 7 days, immunoblot for PKM2; tetramer to dimers. (A gel shift assay detects complexes by their altered migration in electrophoresis.)

Assay [3] has the same target. The experiment in a line: native gel or EMSA; blue native PAGE (8%, 4 °C) of digitonin lysates of primary astrocytes, immunoblot for PKM2; tetramer to dimers; cells treated with quinpirole, DASA-58, PTX, β-arrestin siRNA, pyridoxine.

PKM2, P52480 1-531 (enzyme; other documents disagree on this pair), sequence (P52480 whole entry): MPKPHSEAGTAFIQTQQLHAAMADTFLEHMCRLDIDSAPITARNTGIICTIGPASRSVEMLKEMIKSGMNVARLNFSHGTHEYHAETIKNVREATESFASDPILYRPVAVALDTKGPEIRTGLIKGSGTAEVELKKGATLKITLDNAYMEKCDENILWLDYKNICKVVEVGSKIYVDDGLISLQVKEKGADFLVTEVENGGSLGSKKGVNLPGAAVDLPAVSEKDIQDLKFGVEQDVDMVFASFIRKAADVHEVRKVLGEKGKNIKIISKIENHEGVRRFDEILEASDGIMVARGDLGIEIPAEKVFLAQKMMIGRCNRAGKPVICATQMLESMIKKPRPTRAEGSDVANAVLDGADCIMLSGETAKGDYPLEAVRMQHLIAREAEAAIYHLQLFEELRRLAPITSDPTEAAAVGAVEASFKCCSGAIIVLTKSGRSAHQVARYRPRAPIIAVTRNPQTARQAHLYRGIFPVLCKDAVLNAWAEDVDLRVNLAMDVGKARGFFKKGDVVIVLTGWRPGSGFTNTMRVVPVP
Purified recombinant PKM2, P52480 1-531 (enzyme; other documents disagree on this pair), sequence (P52480 whole entry): as above

For “Purified recombinant PKM2, P52480 1-531 (enzyme; other documents disagree on this pair)”, the stoichiometry N in assay [1] is 2 and 4.

In the case of “PKM2, P52480 1-531 (enzyme; other documents disagree on this pair)”, the stoichiometry N in assay [2] is 2 and 4; in assay [3], 4 and 2.
